Experiments:
c-Src SH2 = test: SH2 binding enrichment of the phosphorylated peptide, bacterial display (enrichment ratio); higher = better substrate or ligand; peptides without Tyr show the background
Grb2 SH2 = Grb2 SH2 (UniProt P62993); test: as above
SHP2-C SH2 = test: as above
EPHB1 = EPHB1 (UniProt P54762); test: phosphorylation enrichment, bacterial display (enrichment ratio); higher = better substrate or ligand; peptides without Tyr show the background
Fyn = Fyn (UniProt P06241); test: as above
FGFR1 = FGFR1 (UniProt P11362); test: as above
AncSZ = test: as above
c-Src = test: as above
Jak2 = Jak2 (UniProt O60674); test: as above
Hck = Hck (UniProt P08631); test: as above
EPHB2 = EPHB2 (UniProt P29323); test: as above
Fes = Fes (UniProt P07332); test: as above
MERTK = MERTK (UniProt Q12866); test: as above
FGFR3 = FGFR3 (UniProt P22607); test: as above
Fer (mouse) = test: as above
c-Abl (mouse) = test: as above
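Throughout, for SH2 binding enrichment of the phosphorylated peptide, bacterial display: peptide library displayed on the E. coli surface as eCPX fusions, selected cells deep-sequenced, score is each peptide's frequency after selection divided by its frequency in the input.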
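Throughout, for phosphorylation enrichment, bacterial display: 11-residue human phosphosite peptides and single-mutation variants displayed on the E. coli surface, counted by deep sequencing, each peptide's frequency after selection divided by its frequency in the unselected input library; frequency after pTyr selection over input frequency; kinase dosed for 20-30% of maximal phosphorylation in three min.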

Sequence of Fes (P07332 whole entry, looked up): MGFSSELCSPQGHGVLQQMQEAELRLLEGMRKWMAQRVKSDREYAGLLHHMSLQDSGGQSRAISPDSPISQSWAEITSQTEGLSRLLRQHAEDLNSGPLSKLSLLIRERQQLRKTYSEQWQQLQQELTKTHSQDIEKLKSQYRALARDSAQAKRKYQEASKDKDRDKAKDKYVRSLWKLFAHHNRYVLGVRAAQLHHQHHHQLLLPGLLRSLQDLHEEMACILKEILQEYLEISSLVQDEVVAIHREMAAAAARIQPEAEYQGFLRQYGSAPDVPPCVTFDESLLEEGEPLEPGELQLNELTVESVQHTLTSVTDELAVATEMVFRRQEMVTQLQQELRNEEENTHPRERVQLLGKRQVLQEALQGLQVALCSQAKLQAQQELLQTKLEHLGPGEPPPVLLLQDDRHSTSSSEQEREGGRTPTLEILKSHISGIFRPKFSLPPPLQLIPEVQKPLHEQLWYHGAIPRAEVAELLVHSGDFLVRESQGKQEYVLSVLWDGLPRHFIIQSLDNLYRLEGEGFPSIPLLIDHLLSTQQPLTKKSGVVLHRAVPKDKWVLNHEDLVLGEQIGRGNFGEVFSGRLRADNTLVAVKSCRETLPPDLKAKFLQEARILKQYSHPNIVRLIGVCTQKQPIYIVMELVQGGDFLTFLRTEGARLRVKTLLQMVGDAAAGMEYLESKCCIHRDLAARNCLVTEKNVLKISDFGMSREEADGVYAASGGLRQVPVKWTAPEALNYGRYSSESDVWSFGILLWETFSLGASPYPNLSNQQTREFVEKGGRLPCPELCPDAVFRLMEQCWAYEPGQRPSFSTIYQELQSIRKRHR
Sequence of EPHB2 (P29323 whole entry, looked up): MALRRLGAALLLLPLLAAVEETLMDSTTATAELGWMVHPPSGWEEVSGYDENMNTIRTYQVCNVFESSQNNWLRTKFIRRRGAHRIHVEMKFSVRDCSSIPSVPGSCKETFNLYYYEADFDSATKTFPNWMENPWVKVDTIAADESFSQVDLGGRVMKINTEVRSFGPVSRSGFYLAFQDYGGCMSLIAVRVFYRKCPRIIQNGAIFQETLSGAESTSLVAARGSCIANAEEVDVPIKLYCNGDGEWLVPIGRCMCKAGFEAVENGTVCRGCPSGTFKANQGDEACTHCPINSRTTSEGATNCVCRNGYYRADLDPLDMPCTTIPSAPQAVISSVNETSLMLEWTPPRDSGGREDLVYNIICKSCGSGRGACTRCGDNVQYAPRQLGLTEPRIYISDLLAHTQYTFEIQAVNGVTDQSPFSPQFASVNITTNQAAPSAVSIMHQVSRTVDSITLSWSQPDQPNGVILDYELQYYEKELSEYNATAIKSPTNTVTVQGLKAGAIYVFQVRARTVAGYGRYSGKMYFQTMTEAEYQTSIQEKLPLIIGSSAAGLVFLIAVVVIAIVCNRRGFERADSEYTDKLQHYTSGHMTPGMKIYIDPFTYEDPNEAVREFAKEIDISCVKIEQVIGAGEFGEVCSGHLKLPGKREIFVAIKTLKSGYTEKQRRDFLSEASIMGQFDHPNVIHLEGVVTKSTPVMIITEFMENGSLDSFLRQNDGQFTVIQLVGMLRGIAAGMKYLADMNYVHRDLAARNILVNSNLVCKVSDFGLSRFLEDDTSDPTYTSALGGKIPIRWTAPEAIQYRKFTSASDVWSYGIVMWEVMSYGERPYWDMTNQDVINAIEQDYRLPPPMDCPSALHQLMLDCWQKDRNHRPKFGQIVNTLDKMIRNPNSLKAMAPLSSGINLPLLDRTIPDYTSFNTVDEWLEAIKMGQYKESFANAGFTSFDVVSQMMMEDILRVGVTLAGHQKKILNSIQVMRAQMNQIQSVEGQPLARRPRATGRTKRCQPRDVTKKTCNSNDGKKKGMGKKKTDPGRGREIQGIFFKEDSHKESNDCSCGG
Sequence of Hck (P08631 whole entry, looked up): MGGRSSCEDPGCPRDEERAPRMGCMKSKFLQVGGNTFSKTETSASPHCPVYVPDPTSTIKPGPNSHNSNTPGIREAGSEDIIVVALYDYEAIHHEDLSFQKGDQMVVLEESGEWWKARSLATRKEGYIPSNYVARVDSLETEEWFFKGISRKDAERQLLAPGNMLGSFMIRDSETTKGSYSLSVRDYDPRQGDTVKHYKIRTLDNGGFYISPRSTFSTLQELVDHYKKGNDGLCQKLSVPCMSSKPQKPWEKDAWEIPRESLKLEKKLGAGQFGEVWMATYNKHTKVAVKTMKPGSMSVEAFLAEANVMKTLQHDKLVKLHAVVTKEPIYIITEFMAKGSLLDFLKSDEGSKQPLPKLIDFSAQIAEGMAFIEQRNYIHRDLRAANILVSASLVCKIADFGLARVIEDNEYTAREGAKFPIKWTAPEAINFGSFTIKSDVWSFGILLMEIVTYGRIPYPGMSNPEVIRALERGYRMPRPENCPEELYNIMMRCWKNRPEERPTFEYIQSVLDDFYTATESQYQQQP
Sequence of Fyn (P06241 whole entry, looked up): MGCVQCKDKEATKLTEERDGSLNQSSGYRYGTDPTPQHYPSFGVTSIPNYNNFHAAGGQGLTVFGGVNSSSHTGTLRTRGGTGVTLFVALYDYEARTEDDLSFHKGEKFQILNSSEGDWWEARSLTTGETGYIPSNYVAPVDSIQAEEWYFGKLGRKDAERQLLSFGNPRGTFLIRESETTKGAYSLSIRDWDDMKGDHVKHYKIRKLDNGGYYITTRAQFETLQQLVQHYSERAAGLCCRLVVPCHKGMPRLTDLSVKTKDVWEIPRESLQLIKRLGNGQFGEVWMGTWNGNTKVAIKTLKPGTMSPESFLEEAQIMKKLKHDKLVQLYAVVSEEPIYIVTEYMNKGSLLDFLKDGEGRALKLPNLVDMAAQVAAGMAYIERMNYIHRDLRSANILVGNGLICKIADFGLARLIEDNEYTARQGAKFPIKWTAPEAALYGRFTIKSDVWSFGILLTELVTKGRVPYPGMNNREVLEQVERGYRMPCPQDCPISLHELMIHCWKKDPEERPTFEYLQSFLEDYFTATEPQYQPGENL
Sequence of FGFR3 (P22607 whole entry, looked up): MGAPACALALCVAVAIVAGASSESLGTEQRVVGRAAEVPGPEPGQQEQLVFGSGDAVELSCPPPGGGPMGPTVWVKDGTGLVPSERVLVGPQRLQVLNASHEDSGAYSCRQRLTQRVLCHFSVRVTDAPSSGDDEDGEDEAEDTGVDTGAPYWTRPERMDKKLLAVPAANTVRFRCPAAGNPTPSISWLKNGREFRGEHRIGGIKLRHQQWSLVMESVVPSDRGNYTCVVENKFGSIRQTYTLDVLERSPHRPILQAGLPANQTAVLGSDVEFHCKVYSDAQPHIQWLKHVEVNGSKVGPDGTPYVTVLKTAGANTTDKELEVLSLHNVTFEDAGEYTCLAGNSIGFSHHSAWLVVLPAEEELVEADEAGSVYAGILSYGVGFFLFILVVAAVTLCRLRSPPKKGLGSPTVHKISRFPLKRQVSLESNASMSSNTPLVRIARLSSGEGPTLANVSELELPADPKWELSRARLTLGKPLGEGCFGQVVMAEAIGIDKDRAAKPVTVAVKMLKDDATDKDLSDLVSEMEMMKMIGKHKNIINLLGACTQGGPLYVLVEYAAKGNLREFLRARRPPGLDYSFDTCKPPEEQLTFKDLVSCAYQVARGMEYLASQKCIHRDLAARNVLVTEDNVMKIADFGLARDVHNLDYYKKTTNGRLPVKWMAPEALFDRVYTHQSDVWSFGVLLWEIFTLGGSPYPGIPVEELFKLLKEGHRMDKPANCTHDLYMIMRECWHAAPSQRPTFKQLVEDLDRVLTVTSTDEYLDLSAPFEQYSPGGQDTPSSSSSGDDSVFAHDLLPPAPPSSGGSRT
Sequence of FGFR1 (P11362 whole entry, looked up): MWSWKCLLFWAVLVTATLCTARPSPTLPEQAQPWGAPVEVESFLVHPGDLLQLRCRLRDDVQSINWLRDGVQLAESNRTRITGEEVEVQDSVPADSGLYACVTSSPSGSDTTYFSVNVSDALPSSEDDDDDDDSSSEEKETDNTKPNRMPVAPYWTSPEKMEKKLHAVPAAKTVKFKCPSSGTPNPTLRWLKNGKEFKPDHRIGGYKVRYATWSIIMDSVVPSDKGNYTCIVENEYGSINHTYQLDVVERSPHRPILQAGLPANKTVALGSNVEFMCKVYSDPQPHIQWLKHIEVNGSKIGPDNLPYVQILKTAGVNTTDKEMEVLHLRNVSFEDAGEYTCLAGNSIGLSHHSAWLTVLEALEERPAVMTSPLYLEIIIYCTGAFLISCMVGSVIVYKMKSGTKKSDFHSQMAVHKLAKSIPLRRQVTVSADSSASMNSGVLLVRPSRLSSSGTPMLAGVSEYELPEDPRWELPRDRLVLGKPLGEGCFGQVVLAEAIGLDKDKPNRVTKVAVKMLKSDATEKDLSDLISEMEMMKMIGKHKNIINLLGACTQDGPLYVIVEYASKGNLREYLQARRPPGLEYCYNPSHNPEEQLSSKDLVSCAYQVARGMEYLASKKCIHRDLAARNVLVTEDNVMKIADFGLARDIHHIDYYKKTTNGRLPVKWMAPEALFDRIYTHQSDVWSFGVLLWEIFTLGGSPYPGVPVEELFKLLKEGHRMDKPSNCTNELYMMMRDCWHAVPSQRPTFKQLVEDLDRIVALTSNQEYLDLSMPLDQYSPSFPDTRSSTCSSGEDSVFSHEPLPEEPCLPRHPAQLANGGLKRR
Sequence of Grb2 SH2 (P62993 whole entry, looked up): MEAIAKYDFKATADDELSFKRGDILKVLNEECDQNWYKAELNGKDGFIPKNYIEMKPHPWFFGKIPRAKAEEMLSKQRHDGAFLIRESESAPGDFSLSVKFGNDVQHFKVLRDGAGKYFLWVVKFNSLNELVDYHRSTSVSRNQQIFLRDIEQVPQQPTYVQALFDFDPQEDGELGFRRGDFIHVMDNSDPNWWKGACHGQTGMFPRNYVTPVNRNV

Sequence | SH2 binding enrichment (c-Src SH2) | SH2 binding enrichment (Grb2 SH2) | SH2 binding enrichment (SHP2-C SH2) | phosphorylation enrichment (EPHB1) | phosphorylation enrichment (Fyn) | phosphorylation enrichment (FGFR1) | phosphorylation enrichment (AncSZ) | phosphorylation enrichment (c-Src) | phosphorylation enrichment (Jak2) | phosphorylation enrichment (Hck) | phosphorylation enrichment (EPHB2) | phosphorylation enrichment (Fes) | phosphorylation enrichment (MERTK) | phosphorylation enrichment (FGFR3) | phosphorylation enrichment (Fer (mouse)) | phosphorylation enrichment (c-Abl (mouse))
TCFDKYTGSTY [FN1_Y101_N104S] | 0.51 | 0.997 | 0.691 | 0.442 | 0.469 | 0.556 | 0.843 | 0.5 | 0.747 | 0.652 | 0.556 | 0.737 | 0.399 | 0.534 | 0.418 | 0.579
VIGRMYDFHVL [RPF2_Y109_YF] | 0.876 | 1.05 | 1.14 | 0.556 | 0.469 | 0.472 | 0.943 | 0.598 | 0.804 | 0.6 | 0.659 | 0.902 | 3.11 | 0.607 | 8.04 | 0.573
KPNMNYDKLSW [FLI1_Y332_R337W] | 10.2 | 0.967 | 1.5 | 0.644 | 0.486 | 0.428 | 0.751 | 0.446 | 0.746 | 0.661 | 0.893 | 0.741 | 0.481 | 0.59 | 0.555 | 0.41
TGEKPYECVQC [ZNF24_Y335] | 3.11 | 0.81 | 1.06 | 0.514 | 0.515 | 0.501 | 0.755 | 0.501 | 0.664 | 0.521 | 0.507 | 0.7 | 0.509 | 0.531 | 1.87 | 0.519
LSSISYVGCSL [ADGRD1_Y571] | 0.567 | 1.13 | 1.1 | 0.76 | 0.681 | 0.719 | 1.01 | 0.605 | 0.871 | 0.747 | 1.11 | 1.01 | 0.541 | 0.838 | 0.445 | 0.79
PFADPYFDFEI [ZC3H18_Y371_YF] | 0.666 | 0.857 | 1.03 | 0.673 | 0.885 | 9.45 | 1.48 | 4.46 | 1.7 | 0.597 | 0.369 | 1.16 | 0.638 | 6.94 | 0.902 | 0.811
DLFRLYVCVKE [ARID1B_Y1091] | 0.35 | 0.59 | 0.51 | 0.697 | 0.396 | 0.389 | 1.17 | 0.431 | 1.35 | 0.475 | 0.67 | 1.52 | 0.364 | 0.88 | 0.548 | 0.875
DRLASYPEKVR [KRT13_Y118_L119P] | 0.511 | 0.845 | 0.636 | 0.323 | 0.35 | 0.403 | 0.395 | 0.331 | 0.403 | 0.329 | 0.413 | 0.57 | 0.34 | 0.413 | 0.329 | 0.41
IIRFNYLLDVL [FGFR4_Y237_S232I_YF] | 1.13 | 2.13 | 2.19 | 0.688 | 0.513 | 0.809 | 1.2 | 0.525 | 0.89 | 0.522 | 0.478 | 1.31 | 0.465 | 0.763 | 0.47 | 0.996
PGVNYYFQVSA | 0.561 | 1.04 | 0.629 | 1.61 | 0.611 | 2.98 | 2.15 | 0.692 | 2.79 | 1.03 | 1.49 | 2.14 | 0.734 | 3.16 | 0.907 | 1.48
STLEVYRCHPP [IL21R_Y317_S318R] | 0.42 | 0.715 | 0.455 | 0.758 | 0.542 | 0.55 | 1.11 | 0.497 | 1.03 | 0.552 | 0.675 | 1.25 | 0.364 | 0.901 | 0.49 | 0.78
MRTMGYMPREM [CABP5_Y62_T65R] | 0.48 | 0.785 | 0.576 | 0.369 | 0.438 | 0.397 | 0.494 | 0.356 | 0.606 | 0.405 | 0.374 | 0.594 | 0.435 | 0.508 | 0.411 | 0.507
LSDVIYVILRK [PMP22_Y153_G150D] | 0.58 | 1.17 | 1.31 | 0.57 | 0.414 | 0.456 | 1.27 | 0.38 | 1.23 | 0.391 | 0.55 | 1.28 | 0.278 | 0.684 | 0.398 | 0.617
WPQKLYNNFVN [MYO5C_Y526_L522P] | 0.59 | 1.11 | 0.668 | 0.407 | 0.439 | 0.445 | 0.795 | 0.626 | 0.725 | 0.528 | 0.546 | 0.884 | 0.505 | 0.518 | 0.377 | 0.687
GEVKAYGAGLL [TH_Y419] | 0.393 | 0.818 | 0.457 | 0.309 | 0.363 | 0.453 | 0.497 | 0.342 | 0.498 | 0.404 | 0.459 | 0.503 | 0.342 | 0.371 | 0.319 | 0.451
TQNGVYSAANY [DDX5_Y535] | 0.838 | 0.842 | 0.536 | 1.26 | 7.45 | 0.454 | 0.69 | 6.11 | 0.5 | 8.68 | 1.85 | 0.699 | 4.8 | 0.514 | 1.87 | 1.04
ALPVFYAATIA [SLC20A2_Y187] | 0.669 | 0.793 | 0.889 | 0.905 | 0.544 | 0.394 | 0.823 | 0.598 | 0.886 | 0.956 | 0.756 | 1.03 | 2.96 | 0.651 | 1.2 | 0.831

Sequence | SH2 binding enrichment (c-Src SH2) | SH2 binding enrichment (Grb2 SH2) | SH2 binding enrichment (SHP2-C SH2) | phosphorylation enrichment (EPHB1) | phosphorylation enrichment (Fyn) | phosphorylation enrichment (FGFR1) | phosphorylation enrichment (AncSZ) | phosphorylation enrichment (c-Src) | phosphorylation enrichment (Jak2) | phosphorylation enrichment (Hck) | phosphorylation enrichment (EPHB2) | phosphorylation enrichment (Fes) | phosphorylation enrichment (MERTK) | phosphorylation enrichment (FGFR3) | phosphorylation enrichment (Fer (mouse)) | phosphorylation enrichment (c-Abl (mouse))
NYYDTYIKTCL [IQGAP2_Y1445] | 0.401 | 0.841 | 0.595 | 5.9 | 3.03 | 7.55 | 1.93 | 2.34 | 1.5 | 2.38 | 5.75 | 1.25 | 3.49 | 5.88 | 1.1 | 0.928
YAFQLYDLDPD [CHP2_Y123_R127P] | 1.28 | 0.986 | 1.71 | 1.52 | 4.7 | 1.65 | 1.66 | 5 | 1.32 | 2.56 | 0.998 | 1.37 | 2.01 | 1.37 | 0.916 | 0.78
LIYTNYEVGKD [GSTP1_Y112_A114V] | 0.801 | 1.12 | 1.09 | 13.4 | 11.9 | 7.05 | 2.37 | 8.72 | 1.33 | 8.89 | 16.8 | 1.96 | 11.3 | 5.54 | 17.7 | 14.1
DLRGIYQKLVI | 0.721 | 1.23 | 1.09 | 1.81 | 6.38 | 0.825 | 0.826 | 5.56 | 0.869 | 6.68 | 1.32 | 1.4 | 4.99 | 0.854 | 7.47 | 1.76
FPCSVYVPDEW [INSR_Y1011] | 1.13 | 0.858 | 1.35 | 0.707 | 0.714 | 0.623 | 1.5 | 1.8 | 1.11 | 0.675 | 0.606 | 1.3 | 0.476 | 0.769 | 0.72 | 1.08
GPQGVYSNKLV [PTPN14_Y506] | 0.536 | 0.654 | 0.724 | 0.417 | 0.633 | 0.472 | 0.568 | 0.636 | 0.544 | 0.588 | 0.502 | 0.642 | 0.519 | 0.51 | 0.407 | 0.537
VDDEIYYFRKP [PBRM1_Y1289] | 0.521 | 0.994 | 0.57 | 0.871 | 8.84 | 6.49 | 2.94 | 6.81 | 1.35 | 8.76 | 0.84 | 1.39 | 4.89 | 5.81 | 1.29 | 7.44
GVASDYKCVDP [VPS13B_Y1991_I1994V] | 0.622 | 0.845 | 0.631 | 0.624 | 0.504 | 0.533 | 1.05 | 0.458 | 0.964 | 0.537 | 0.62 | 1.16 | 0.476 | 0.821 | 0.548 | 0.791
MALDIYRASFF [ALK_Y1278_R1275L_YF] | 0.518 | 0.803 | 0.768 | 0.599 | 1.06 | 0.558 | 0.936 | 1.05 | 0.715 | 1.22 | 0.584 | 0.953 | 0.776 | 0.767 | 0.599 | 4.88
DKPENYRRLDI [VHL_Y175_V170D] | 0.472 | 0.68 | 0.637 | 0.388 | 0.46 | 0.558 | 0.647 | 0.418 | 0.551 | 0.442 | 0.412 | 0.657 | 0.402 | 0.467 | 0.452 | 0.39
MSSHHYDFKKF [ZNF445_Y428_YF] | 0.485 | 0.784 | 0.544 | 0.533 | 0.384 | 0.339 | 0.466 | 0.415 | 0.382 | 0.362 | 0.311 | 0.462 | 0.376 | 0.346 | 0.308 | 0.39
TEQDPYNNIVR [MMUT_Y364] | 1.28 | 0.857 | 0.649 | 0.5 | 0.545 | 0.466 | 1.01 | 0.581 | 0.881 | 0.555 | 0.499 | 0.978 | 0.451 | 0.601 | 0.45 | 0.582
EWCSPYGLTPR [GRIN3B_Y601_R598C] | 0.535 | 0.644 | 0.629 | 0.556 | 1.76 | 0.474 | 0.815 | 3.91 | 0.778 | 1.04 | 0.569 | 1.02 | 1.01 | 0.613 | 1.2 | 0.734
EFTAGYNVKFD [GPX4_Y123_A120T] | 0.468 | 0.881 | 0.605 | 0.422 | 0.465 | 0.41 | 0.762 | 0.44 | 0.9 | 0.435 | 0.474 | 0.891 | 0.445 | 0.547 | 0.495 | 0.635
LEKISYVYMKR [SSX7_Y48] | 1.02 | 1.03 | 3.38 | 1.23 | 1.21 | 0.784 | 1.72 | 0.547 | 1.37 | 1.18 | 1.37 | 1.75 | 0.81 | 1.32 | 0.875 | 1.3
LYSDHYSPSGR [TMPRSS12_Y23] | 0.473 | 1.1 | 0.544 | 4.19 | 1.01 | 1.14 | 1.27 | 2.15 | 1.41 | 2.01 | 2.91 | 1.03 | 28.8 | 0.958 | 16.8 | 1.54

From the supplement of paper PMC10065799, “High-throughput profiling of sequence recognition by tyrosine kinases and SH2 domains using bacterial peptide display” (eLife, 2023)
